According to patent publication US20250360236A1, “PROSTATE SPECIFIC MEMBRANE ANTIGEN (PSMA) LIGANDS” (Deutsches Krebsforschungszentrum Stiftung des öffentlichen …, priority 2022, published 2025):
Like-named read-outs stand apart in the source and are kept apart here. Where a SMILES comes first, the peptide text is derived from it. [ ]: non-standard residue; d: D form. The star is where a group is joined. ξ: configuration not given here. X1 = CN1/C(=C/C=C/C=C/C2=[N+](CCCCCC(=O)*)c3ccc(S(=O)(=O)O)cc3C2(C)C)C(C)(C)c2cc(S(=O)(=O)[O-])ccc21; X3 = CN1/C(=C/C=C/C=C/C2=[N+](CCCCCC(=O)*)c3ccc(S(=O)(=O)[O-])cc3C2(C)C)C(C)(C)c2cc(S(=O)(=O)O)ccc21; DOTA = O=C(O)CN1CCN(CC(=O)O)CCN(CC(=O)*)CCN(CC(=O)O)CC1; EuK = O=C(O)CC[C@H](NC(=O)N[C@@H](CCCCN*)C(=O)O)C(=O)O; X2 = O=C(O)CC[C@@H](NC(=O)N[C@H](CCCCN*)C(=O)O)C(=O)O; 2Nal = N[C@@H](Cc1ccc2ccccc2c1)C(=O)O; d2Nal = N[C@H](Cc1ccc2ccccc2c1)C(=O)O; Trx = NC[C@H]1CC[C@H](C(=O)O)CC1; ξK = NCCCCC(N)C(=O)O; βAla = NCCC(=O)O; Sar = CNCC(=O)O

Assays:
[1] = tested on: PSMA+-cells (LNCaP); assay: Cell surface binding and internalization experiments; format: cell-based; conditions: 68Ga-labeled compounds, 30 nM, 45 min 37 °C, specific uptake by blockage with 500 μM 2-PMPA, mean ± SD n=3
Method: For internalization experiments, 10^5 cells per well were seeded in poly-L-lysine coated 24-well cell culture plates 24 h before incubation. After washing, the cells were incubated with 30 nM of the radiolabeled compound for 45 min at 37° C. Cellular uptake was terminated by washing 3 times with 1 mL of ice-cold PBS. To remove surface-bound radioactivity, cells were incubated twice with 0.5 mL glycine-HCl in PBS (50 mM, pH=2.8) for 5 min. The cells were washed with 1 mL of ice-cold PBS and lysed using 0.3 N NaOH (0.5 mL). The surface-bound and the internalized fractions were measured in a gamma counter. The cell uptake was calculated as percent of the initially added radioactivity bound to 10^5 cells [% ID/10^5 cells].

[2] = molecular target: T1, PSMA (Homo sapiens, UniProt Q04609); conditions: cited from earlier work
T1 construct: determined in vitro using PSMA^+-cells (LNCaP); host or cells: LNCaP cells
T1 sequence (Q04609 whole entry): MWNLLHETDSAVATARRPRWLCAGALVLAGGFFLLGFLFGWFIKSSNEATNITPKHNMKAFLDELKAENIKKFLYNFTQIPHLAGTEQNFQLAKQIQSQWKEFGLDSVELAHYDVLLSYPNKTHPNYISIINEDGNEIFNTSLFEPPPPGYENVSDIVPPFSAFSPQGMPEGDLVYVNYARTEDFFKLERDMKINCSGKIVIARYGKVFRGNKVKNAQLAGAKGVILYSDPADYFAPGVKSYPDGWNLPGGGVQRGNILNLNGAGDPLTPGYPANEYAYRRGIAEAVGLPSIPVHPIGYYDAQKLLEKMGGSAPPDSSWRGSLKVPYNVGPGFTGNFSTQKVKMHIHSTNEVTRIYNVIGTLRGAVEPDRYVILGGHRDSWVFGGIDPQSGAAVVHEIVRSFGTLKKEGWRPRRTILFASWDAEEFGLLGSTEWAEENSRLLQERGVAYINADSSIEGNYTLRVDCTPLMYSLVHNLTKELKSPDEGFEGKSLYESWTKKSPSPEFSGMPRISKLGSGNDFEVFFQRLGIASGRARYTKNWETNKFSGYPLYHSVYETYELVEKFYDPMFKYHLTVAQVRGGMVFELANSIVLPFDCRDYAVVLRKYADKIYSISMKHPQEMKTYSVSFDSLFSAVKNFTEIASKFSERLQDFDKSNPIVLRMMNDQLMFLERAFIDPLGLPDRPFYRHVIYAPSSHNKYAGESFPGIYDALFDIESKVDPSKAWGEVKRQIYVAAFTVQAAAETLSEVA

[3] = in vivo; parameters: species or system BALB/c nu/nu mice; conditions: male, BALB/c nu/nu, mouse, iv, 0.06 nmol, total radioactivity; for tissue to tissue ratio at 1 h: LNCaP Tumor-to-Organ ratio; for tissue uptake at 1 h: Organ distribution
[4] = tested on: LNCaP xenograft tumors; conditions: cited from earlier work

## CN(CC(=O)NC[C@H]1CC[C@H](C(=O)N[C@@H](Cc2ccc3ccccc3c2)C(=O)NCCCC[C@H](NC(=O)N[C@@H](CCC(=O)O)C(=O)O)C(=O)O)CC1)C(=O)CN(C)C(=O)CN(C)C(=O)CN(C)C(=O)CN(C)C(=O)[C@H](CCCCNC(=O)CN1CCN(CC(=O)O)CCN(CC(=O)O)CCN(CC(=O)O)CC1)NC(=O)CN(C)C(=O)CN(C)C(=O)CN(C)C(=O)CN(C)C(=O)CN(C)C(=O)CCNC(=O)CCCCC[N+]1=C(/C=C/C=C/C=C2/N(C)c3ccc(S(=O)(=O)O)cc3C2(C)C)C(C)(C)c2cc(S(=O)(=O)[O-])ccc21 [BP-1, Glu-urea-Lys-2-Nal-Chx-Sar5-Lys(DOTA)-Sar5-bAla-sulfoCy5] ({X3-βAla}-[Sar][Sar][Sar][Sar][Sar]K(DOTA)[Sar][Sar][Sar][Sar][Sar][Trx][2Nal]-EuK)
[1]
  Specifically cell surface bound: 1.3 ± 0.6 % AR/10^5 cells
  Specifically internalized: 1.1 ± 1.0 % AR/10^5 cells

## CN(CC(=O)NC[C@H]1CC[C@H](C(=O)N[C@@H](Cc2ccc3ccccc3c2)C(=O)NCCCC[C@H](NC(=O)N[C@@H](CCC(=O)O)C(=O)O)C(=O)O)CC1)C(=O)CN(C)C(=O)CN(C)C(=O)CN(C)C(=O)CN(C)C(=O)[C@H](CCCCNC(=O)CCCCC[N+]1=C(/C=C/C=C/C=C2/N(C)c3ccc(S(=O)(=O)O)cc3C2(C)C)C(C)(C)c2cc(S(=O)(=O)[O-])ccc21)NC(=O)CN(C)C(=O)CN(C)C(=O)CN(C)C(=O)CN(C)C(=O)CN(C)C(=O)CCNC(=O)CN1CCN(CC(=O)O)CCN(CC(=O)O)CCN(CC(=O)O)CC1 [BP-4, Glu-urea-Lys-2-Nal-Chx-Sar5-Lys(sulfoCy5)-Sar5-bAla-DOTA] ({DOTA-βAla}-[Sar][Sar][Sar][Sar][Sar]K(X3)[Sar][Sar][Sar][Sar][Sar][Trx][2Nal]-EuK)
[1]
  Specifically cell surface bound: 0.8 ± 1.0 % AR/10^5 cells
  Specifically internalized: 0.4 ± 0.7 % AR/10^5 cells

## O=C(O)CC[C@H](NC(=O)N[C@@H](CCCCNC(=O)[C@H](Cc1ccc2ccccc2c1)NC(=O)[C@H]1CC[C@H](CNC(=O)CN2CCN(CC(=O)O)CCN(CC(=O)O)CCN(CC(=O)O)CC2)CC1)C(=O)O)C(=O)O [PSMA-617, reference compound]
[1]
  Specifically cell surface bound: 0.3 ± 0.1 % AR/10^5 cells
  Specifically internalized: 1.2 ± 0.6 % AR/10^5 cells
[2]; ki-value for PSMA-617 from Benesova et al. (3), read-out: ki free ligands
  Ki: 2.3 ± 2.9 nM

## CN(CC(=O)NC[C@H]1CC[C@H](C(=O)N[C@H](Cc2ccc3ccccc3c2)C(=O)NCCCC[C@@H](NC(=O)N[C@H](CCC(=O)O)C(=O)O)C(=O)O)CC1)C(=O)CN(C)C(=O)CN(C)C(=O)CN(C)C(=O)CN(C)C(=O)C(CCCCNC(=O)CN1CCN(CC(=O)O)CCN(CC(=O)O)CCN(CC(=O)O)CC1)NC(=O)CN(C)C(=O)CN(C)C(=O)CN(C)C(=O)CN(C)C(=O)CN(C)C(=O)CCNC(=O)CCCCC[N+]1=C(/C=C/C=C/C=C2/N(C)c3ccc(S(=O)(=O)[O-])cc3C2(C)C)C(C)(C)c2cc(S(=O)(=O)O)ccc21 (stereo partly shown) [^177Lu-BP-1, metal not drawn] ({X1-βAla}-[Sar][Sar][Sar][Sar][Sar][ξK](DOTA)[Sar][Sar][Sar][Sar][Sar][Trx][d2Nal]-X2)
[3]; Blood
  tissue to tissue ratio at 1 h: 40 ± 4.75
  tissue uptake at 1 h: 0.16 ± 0.02 %ID/g
[3]; Brain
  tissue to tissue ratio at 1 h: 423 ± 81.3
  tissue uptake at 1 h: 0.02 ± 0.001 %ID/g
[3]; Heart
  tissue to tissue ratio at 1 h: 64.5 ± 12.8
  tissue uptake at 1 h: 0.1 ± 0.004 %ID/g
[3]; Intestine
  tissue to tissue ratio at 1 h: 76.3 ± 13.1
  tissue uptake at 1 h: 0.08 ± 0.01 %ID/g
[3]; Kidney
  tissue to tissue ratio at 1 h: 0.34 ± 0.04
  tissue uptake at 1 h: 18.9 ± 4.56 %ID/g
[3]; Liver
  tissue to tissue ratio at 1 h: 27.8 ± 5.94
  tissue uptake at 1 h: 0.24 ± 0.03 %ID/g
[3]; Lung
  tissue to tissue ratio at 1 h: 18.2 ± 4.54
  tissue uptake at 1 h: 0.38 ± 0.03 %ID/g
[3]; Muscle
  tissue to tissue ratio at 1 h: 165 ± 31.4
  tissue uptake at 1 h: 0.04 ± 0.004 %ID/g
[3]; Spleen
  tissue to tissue ratio at 1 h: 8.05 ± 1.05
  tissue uptake at 1 h: 0.78 ± 0.03 %ID/g
[3]; Tumor LNCaP
  tissue uptake at 1 h: 5.85 ± 1.16 %ID/g

## CN(CC(=O)NC[C@H]1CC[C@H](C(=O)N[C@H](Cc2ccc3ccccc3c2)C(=O)NCCCC[C@@H](NC(=O)N[C@H](CCC(=O)O)C(=O)O)C(=O)O)CC1)C(=O)CN(C)C(=O)CN(C)C(=O)CN(C)C(=O)CN(C)C(=O)C(CCCCNC(=O)CCCCC[N+]1=C(/C=C/C=C/C=C2/N(C)c3ccc(S(=O)(=O)[O-])cc3C2(C)C)C(C)(C)c2cc(S(=O)(=O)O)ccc21)NC(=O)CN(C)C(=O)CN(C)C(=O)CN(C)C(=O)CN(C)C(=O)CN(C)C(=O)CCNC(=O)CN1CCN(CC(=O)O)CCN(CC(=O)O)CCN(CC(=O)O)CC1 (stereo partly shown) [^177Lu-BP-4, metal not drawn] ({DOTA-βAla}-[Sar][Sar][Sar][Sar][Sar][ξK](X1)[Sar][Sar][Sar][Sar][Sar][Trx][d2Nal]-X2)
[3]; Blood
  tissue to tissue ratio at 1 h: 25.9 ± 9.14
  tissue uptake at 1 h: 0.23 ± 0.08 %ID/g
[3]; Brain
  tissue to tissue ratio at 1 h: 275 ± 63.6
  tissue uptake at 1 h: 0.02 ± 0.002 %ID/g
[3]; Heart
  tissue to tissue ratio at 1 h: 48.6 ± 15.7
  tissue uptake at 1 h: 0.12 ± 0.02 %ID/g
[3]; Intestine
  tissue to tissue ratio at 1 h: 49.3 ± 18.2
  tissue uptake at 1 h: 0.12 ± 0.04 %ID/g
[3]; Kidney
  tissue to tissue ratio at 1 h: 0.17 ± 0.08
  tissue uptake at 1 h: 37.5 ± 12.1 %ID/g
[3]; Liver
  tissue to tissue ratio at 1 h: 36.1 ± 6.7
  tissue uptake at 1 h: 0.14 ± 0.01 %ID/g
[3]; Lung
  tissue to tissue ratio at 1 h: 12.1 ± 2.03
  tissue uptake at 1 h: 0.4 ± 0.04 %ID/g
[3]; Muscle
  tissue to tissue ratio at 1 h: 110 ± 51.7
  tissue uptake at 1 h: 0.06 ± 0.002 %ID/g
[3]; Spleen
  tissue to tissue ratio at 1 h: 7.83 ± 0.85
  tissue uptake at 1 h: 0.59 ± 0.12 %ID/g
[3]; Tumor LNCaP
  tissue uptake at 1 h: 4.3 ± 0.27 %ID/g

## O=C([O-])CN1CCN(CC(=O)[O-])CCN(CC(=O)NCC2CCC(C(=O)N[C@@H](Cc3ccc4ccccc4c3)C(=O)NCCCC[C@H](NC(=O)N[C@@H](CCC(=O)O)C(=O)O)C(=O)O)CC2)CCN(CC(=O)[O-])CC1.[177Lu+3] (stereo partly shown) [^177Lu-PSMA-617]
[4]; reference values (4), 1 h p.i. printed for 177Lu-PSMA-617
  tumor uptake in LNCaP xenograft tumors, reference compounds: 8.47±4.09 % ID/g
[4]; reference values (4)
  kidney uptake, reference compounds: 137.2±77.8 % ID/g

## [Glu-urea-Lys(Ahx)]2-HBED-CC [^68Ga-PSMA-10]
[2]; radioligand 68Ga-PSMA-10, reference (1)
  Kd: 3.8 nM

## ^68Ga-Glu-urea-Lys-2-Nal-Chx-Lys(IRDye800CW)-DOTA
[4]; mouse, in vivo
  kidney uptake, reference compounds: 65.64±6.60 % ID/g
